Legend:
Test in all cases: ELISA, coated antigen, OD450
Latent Activin A = biological target: T1, Latent Activin A (human, UniProt P08476 21-426, limits assumed)
T1 construct: also called INHBA latent
T1 sequence: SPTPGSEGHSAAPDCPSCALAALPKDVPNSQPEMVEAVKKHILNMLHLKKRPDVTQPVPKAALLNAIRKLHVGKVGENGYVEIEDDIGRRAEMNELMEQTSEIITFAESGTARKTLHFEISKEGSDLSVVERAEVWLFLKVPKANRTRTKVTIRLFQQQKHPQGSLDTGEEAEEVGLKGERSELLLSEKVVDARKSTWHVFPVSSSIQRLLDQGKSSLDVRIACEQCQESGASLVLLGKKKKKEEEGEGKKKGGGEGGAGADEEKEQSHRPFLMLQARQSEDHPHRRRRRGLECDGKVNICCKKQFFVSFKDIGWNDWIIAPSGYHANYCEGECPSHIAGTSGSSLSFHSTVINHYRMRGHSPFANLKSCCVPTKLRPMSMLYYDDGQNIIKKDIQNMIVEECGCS
Experimental: (§1) Antibodies were re-expressed in 40 mL cultures of Expi293 cells and purified using protein G magnetic sepharose beads (Cytiva, Marlborough, MA) to provide larger quantities for secondary screening. Secondary screening included dose responses in both functional assays described above (SMAD nuclear localization and fibroblast activations assays) as well as in binding assays to the same antigens listed in Table 3. Plates were coated with 25 μL of 3 μg/mL antigen in 384-well Maxisorp plates overnight at 4° C. with agitation. The next day, the samples in the plates were blocked with 70 μL blocking buffer (PBS+1% BSA+0.1% Tween-20) for 2 hours at room temperature. Plates were then washed three times with 100 μL of wash buffer (PBS+0.1% Tween-20). Primary antibodies in Expi293 expression medium were diluted 1:3 in blocking buffer, 25 μL added per well, and the plates were incubated for an hour at room temperature with agitation. Plates were then washed three times and 25 μL of secondary antibody (goat anti-Human IgG, HRP conjugated; Jackson Immunoresearch) diluted 1:5000 in blocking buffer was added for 30 minutes at room temperature. The wells in the plates were washed six times with wash buffer and TMB substrate was added followed by 1 M H3PO4.

Activin B = biological target: T2, Activin B (Homo sapiens (Human), UniProt P09529 293-407)
T2 construct: also called Mature Activin B; mature Activin B
T2 sequence: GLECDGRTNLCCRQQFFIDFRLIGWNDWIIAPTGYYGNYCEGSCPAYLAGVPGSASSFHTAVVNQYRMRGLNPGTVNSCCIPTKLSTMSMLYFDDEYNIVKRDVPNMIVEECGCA
Experimental: as §1

Inhibin A = biological target: T3, Inhibin A (Homo sapiens (Human), UniProt P05111 233-366; P08476 311-426)
T3 sequence 1: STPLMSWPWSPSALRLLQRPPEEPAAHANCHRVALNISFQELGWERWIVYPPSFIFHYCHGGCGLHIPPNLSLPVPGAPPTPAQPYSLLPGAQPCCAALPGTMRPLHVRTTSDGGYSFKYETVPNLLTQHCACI
T3 sequence 2: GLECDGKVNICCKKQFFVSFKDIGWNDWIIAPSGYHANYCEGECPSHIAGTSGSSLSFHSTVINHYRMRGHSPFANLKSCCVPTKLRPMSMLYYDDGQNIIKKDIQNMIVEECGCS
Experimental: as §1

Mature Activin A = biological target: T4, Mature Activin A (human, UniProt P08476 311-426)
T4 construct: also called active Activin A; INHBA mature
T4 sequence: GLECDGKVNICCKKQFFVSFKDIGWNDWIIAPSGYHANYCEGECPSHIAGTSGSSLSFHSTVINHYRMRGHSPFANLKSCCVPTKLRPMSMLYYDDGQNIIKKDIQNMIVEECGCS
Experimental: as §1

| Binder | fold-change of OD 450 over negative control (BSA) (Latent Activin A) | fold-change of OD 450 over negative control (BSA) (Activin B) | fold-change of OD 450 over negative control (BSA) (Inhibin A) | fold-change of OD 450 over negative control (BSA) (Mature Activin A) |
| --- | --- | --- | --- | --- |
| AB338 (antibody, IgG1, V domains shown) VH: EVQLVESGGGLVQPGGSLRLSCAASGFTASRNYMSWVRQAPGKGLELVASISGSGDYTYYPDSVKGRFTISRDNAKNSLYLQMNSLRAEDTAVYYCARSPRGPRLLGYYYGMDVWGQGTTVTVSS VL: DIVMTQSPLSLPVTPGEPASISCRSSQSLLHSNEKNYLHWYLQKPGQSPQLLIYDASKRASGVPDRFSGSGSGTDFTLKISRVEAEDVGVYYCVQDLHTPFTFGGGTKVEIK | 1.44 fold | 0.68 fold | 0.9 fold | 1.94 fold |
| AB349 (antibody, IgG1, V domains shown) VH: QVQLQESGPGLVKPSQTLSLTCTVSGVSLSNARLGVNWIRQPPGKGLEWIGYGSVTGSTDYNPSLKSRVTMSVDTSKNQFSLKVNSVTAADTAVYYCTTSYLVDTAMVTRWGQGTLVTVSS VL: EIVMTQSPATLSLSPGERATLSCRASQRIGSDLAWYQQKPGQAPRLLIYSASSRAPGIPARFSGSGSGTDFTLTISSLEPEDFAVYYCSTMAIPFGGGTKVEIK | 4.34 fold | 0.27 fold | 0.22 fold | 5.14 fold |
| AB449 (antibody, IgG1, V domains shown) VH: QVQLQESGPGLVKPSQTLSLTCTVSGLSLSNAKMGVNWIRQPPGKGLEWIGYVSTTGTTDYNPSLKSRVTMSVDTSKNQFSLKVNSVTAADTAVYYCARAGYPDVWGKGTTVTVSS VL: DIQMTQSPSSVSASVGDRVTITCRASQGISRDLAWYQQKPGKAPKLLIYAASTLVSGVPSRFSGSGSGTDFTLTISSLQPEDFANYYCQQYVSAPPYTFGGGTKVEIK | 4.95 fold | 0.76 fold | 0.65 fold | 6.63 fold |
| AB433 (antibody, IgG1, V domains shown) VH: QVQLQESGPGLVKPSQTLSLTCTVSGFPLSTSRMGVNWIRQPPGKGLEWIGYINPSGATDYNPSLKSRVTMSVDTSKNQFSLKVNSVTAADTAVYYCARAGYPDVWGKGTTVTVSS VL: EIVMTQSPATLSLSPGERATLSCRASQSVRTSLAWYQQKPGQAPRLLIYDTSIRAAGIPARFSGSGSGTDFTLTISSLEPEDFAVYYCQQYGNWHFGGGTKVEIK | 10.5 fold | 2.5 fold | 0.72 fold | 9.41 fold |
| AB435 (antibody, IgG1, V domains shown) VH: QVQLQESGPGLVKPSQTLSLTCTVSGYSLTDARIGVNWIRQPPGKGLEWIGYINPSGRTDYNPSLKSRVTMSVDTSKNQFSLKVNSVTAADTAVYYCARAGYPDVWGKGTTVTVSS VL: EIVMTQSPATLSLSPGERATLSCRASQSIGTKLAWYQQKPGQAPRLLIYDASSRVPGIPARFSGSGSGTDFTLTISSLEPEDFAVYYCQQYGSSPPVYSFGGGTKVEIK | 6.66 fold | 0.84 fold | 0.74 fold | 8.09 fold |
| AB346 (antibody, IgG1, V domains shown) VH: QVQLQESGPGLVKPSQTLSLTCTVSGFPLSTSRMGVNWIRQPPGKGLEWIGYINPSGATDYNPSLKSRVTMSVDTSKNQFSLKVNSVTAADTAVYYCARAGYPDVWGKGTTVTVSS VL: EIVMTQSPATLSLSPGERATLSCRASRSVSSDLAWYQQKPGQAPRLLIYDVSTRATGIPARFSGSGSGTDFTLTISSLEPEDFAVYYCQQYGSSLPPTFGGGTKVEIK | 13.8 fold | 2.46 fold | 0.58 fold | 14 fold |
| AB465 (antibody, IgG1, V domains shown) VH: QVQLQESGPGLVKPSQTLSLTCTVSGASVSNARTGVNWIRQPPGKGLEWIGYINPSGRIDYNPSLKSRVTMSVDTSKNQFSLKVNSVTAADTAVYYCARAGYPDVWGKGTTVTVSS VL: EIVMTQSPATLSLSPGERATLSCRASQTVSSHLAWYQQKPGQAPRLLIYDVSHRASGIPARFSGSGSGTDFTLTISSLEPEDFAVYYCQQYFTLPTFGGGTKVEIK | 5.82 fold | 0.87 fold | 0.46 fold | 6.84 fold |
| AB372 (antibody, IgG1, V domains shown) VH: QVTLRESGPALVKPTQTLTLTCTVSGFSLSTSGATVNWIRQPPGKALEWIGYITSSGRTVYNSALKSRLTISKDTSKNQVVLTMTNMDPVDTATYYCTTTKIVGATLRDYWGQGTLVTVSS VL: DIVMTQSPDSLAVSLGERATINCKSSQSVLDTSTNRNYLAWYQQKPGQPPKLLIYGASIRAGGVPDRFSGSGSGTDFTLTISSLQAEDVAVYYCQQSYSHPPTFGGGTKVEIK | 5.64 fold | 0.43 fold | 0.43 fold | 7.16 fold |
| AB363 (antibody, IgG1, V domains shown) VH: QVTLRESGPALVKPTQTLTLTCTVSGFSLSTSGATVNWIRQPPGKALEWIGYITSSGRTVYNSALKSRLTISKDTSKNQVVLTMTNMDPVDTATYYCTTTKIVGATLRDYWGQGTLVTVSS VL: DIQMTQSPSSVSASVGDRVTITCRASQGISNDLAWYQQKPGKAPKLLIYDVSNRASGVPSRFSGSGSGTDFTLTISSLQPEDFANYYCQQYDNPPSFGGGTKVEIK | 4.82 fold | 0.63 fold | 0.53 fold | 7.63 fold |
| AB357 (antibody, IgG1, V domains shown) VH: EVQLVQSGAEVKKPGASVKVSCKASGYTFPSHYISWVRQAPGQGLEWMGGMNPITGHTIYAQKLQGRGTMTTDPSTSTAYMELRSLRSDDTAVYYCARDMRYDILPGRSYYYGMDVWGQGTTVTVSS VL: ESALTQPASVSGSPGQSITISCTGTDIRGMSVSWYQQHPGKAPKLMIYEVNQRPSGVSNRFSGSKSGNTASLTISGLQAEDEADYYCAAWDASVAGYVFGGGTKLTVL | 6.59 fold | 2.44 fold | 0.77 fold | 6.99 fold |
